Measurements: CN114106180A (CHINESE PHARMACOLOGY UNIV, dated 2022)
One block for each binder: values may come before it.

Target: T1, 重组人CD24蛋白 (human, UniProt P25063 27-59, limits assumed)
T1 construct: also called 重组人CD24抗原
T1 chain (looked up): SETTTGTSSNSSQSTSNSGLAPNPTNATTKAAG
Assay: indirect ELISA, recombinant human CD24 coated at 0.5 ug/mL, antibody 0.08-2.5 nM, goat anti-human IgG detection

EC50: 0.152 nM
B1: CD24单克隆抗体cG7 (antibody, human IgG1, V domains shown)
VH: QVKLEESGGGLVQPGGSLKISCAASGFDFSRYWMSWVRQAPGKGLEWIGEINPDSSTINYTPSLRDKFIISRDNAKNTLYLQMSKVRYEDTSLYYCARQGDYWGQGTSVTVSS
VL: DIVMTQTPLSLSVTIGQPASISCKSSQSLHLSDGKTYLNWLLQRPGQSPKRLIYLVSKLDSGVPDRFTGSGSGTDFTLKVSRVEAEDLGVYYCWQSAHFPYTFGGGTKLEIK
notes: also called 亲本CD24单克隆抗体cG7; CD24嵌合抗体

EC50: 0.153 nM
B2: 带有工程化半胱氨酸的CD24单克隆抗体cG7SV (antibody, V domains shown)
VH: B1 VH
VL: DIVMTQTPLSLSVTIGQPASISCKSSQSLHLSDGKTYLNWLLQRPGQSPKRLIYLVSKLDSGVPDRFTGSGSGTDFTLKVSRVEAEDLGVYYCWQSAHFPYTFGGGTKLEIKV
notes: also called 带有工程化半胱氨酸的CD24嵌合抗体
